# Assay results reported in PMC12561398, “The N-Terminal Extension of the Mycobacterium avium Rel Protein Is a Dual Regulator of the Bifunctional Enzyme and Represents a Novel Target” (Antibiotics, 2025).
# B1: MavRel_(1–444) (domain or fragment, Mycobacterium avium subsp. avium, UniProt A0ACG7XC01 1-444, looked up)
# chain: MAEENSAAQALDAPAESPPNPVIETPEPPTESLKTSSSASRRVRARLARRMTAQRSTLNPVLEPLVAMHREIYPKANVQLLQRAFEVADQRHASQLRHSGDPYITHPLAVATILAELGMDTTTLVAALLHDTVEDTGYTLAQLSEEFGEEVGHLVDGVTKLDRVVLGSAAEGETIRKMITAMARDPRVLVIKVADRLHNMRTMRFLPPEKQARKARETLEVIAPLAHRLGMASVKWELEDLSFAILHPKKYDEIVRLVAGRAPSRDTYLAKVRAEIINTLNASKIKATVEGRPKHYWSIYQKMIVKGRDFDDIHDLVGIRILCDEIRDCYAAVGVVHSLWQPMAGRFKDYIAQPRYGVYQSLHTTVVGPEGKPLEVQIRTRDMHRTAEYGIAAHWRYKEAKGRNGVPHPHAAAEIDDMAWMRQLLDWQREAADPGEFLESLRYD
# notes: The N-terminal His6 tag is stated for the parent relA construct in pET29b; also called MavRel NTD; N-terminal domain (NTD) of MavRel; source: E. coli C41(DE3), purified (Ni-NTA, SEC)
# B2: MavRel_(51–444) (domain or fragment)
# chain: MTAQRSTLNPVLEPLVAMHREIYPKANVQLLQRAFEVADQRHASQLRHSGDPYITHPLAVATILAELGMDTTTLVAALLHDTVEDTGYTLAQLSEEFGEEVGHLVDGVTKLDRVVLGSAAEGETIRKMITAMARDPRVLVIKVADRLHNMRTMRFLPPEKQARKARETLEVIAPLAHRLGMASVKWELEDLSFAILHPKKYDEIVRLVAGRAPSRDTYLAKVRAEIINTLNASKIKATVEGRPKHYWSIYQKMIVKGRDFDDIHDLVGIRILCDEIRDCYAAVGVVHSLWQPMAGRFKDYIAQPRYGVYQSLHTTVVGPEGKPLEVQIRTRDMHRTAEYGIAAHWRYKEAKGRNGVPHPHAAAEIDDMAWMRQLLDWQREAADPGEFLESLRYD
# notes: source: E. coli C41(DE3), purified (Ni-NTA, SEC)
# What was measured:
# [1] = target: T1, MavRel ACT domain (Mycobacterium avium, UniProt A0ACG7XC01); conditions: protein (dimer):valine 1:10 and 1:50; 50 mM Tris pH 8.5, 100 mM NaCl, 5% glycerol; 298 K; cleft at dimer interface
# T1 construct: gene relA
# [2] = test system: MavRel TGS Y473W (Mycobacterium avium subsp. avium ATCC 25291); assay: tryptophan fluorescence quenching; conditions: 50 mM Tris-HCl pH 8.5, 350 mM NaCl, 1 mM DTT; excitation 295 nm, emission 355 nm; temperature not stated
# [3] = test system: MavRel Y473W (full length) (Mycobacterium avium subsp. avium ATCC 25291); assay: tryptophan fluorescence quenching; conditions: 50 mM Tris-HCl pH 8.5, 350 mM NaCl, 1 mM DTT; excitation 295 nm, emission 355 nm; temperature not stated
# [4] = target: the molecule itself; assay: SEC
molecule,measurement,setting,value
CC(C)[C@H](N)C(=O)O [valine],chemical shift perturbation,[1],indicates MavRel ACT:valine binding as well as a change in conformation
deacylated E. coli tRNA,Kd,[2],0.65 µM
same,Kd,[3],1.67 µM
B1,stoichiometry N,[4],2
B2,stoichiometry N,[4],2
